Reference: article PMC11721787 (Science translational medicine, 2023)

Target: ANDV Gn^H/Gc (Andes virus; strain , Q9E006 …, UniProt Q9E006)
Assay: BLI

Binder	half-life (t1/2) of the complex at pH 5.5	fold reduction of dissociation at acidic pH against ADI-42898
ADI-42898 (monoclonal antibody, IgG) (antibody, V domains shown) VH: QVQLVESGGGVVQPGRSLRLSCAASGFTFSSYAMHWVRQAPGKGLEWVAVTWFDVSKKDYADSVKGRFTISRDNSKNTLYLQMNSLRAEDTAVYYCARNLIRYSGSYFPVHGMDVWGQGTTVTVSS VL: DIVMTQSPLSLPVTPGEPASISCRSSQSLLHTYGYNCLDWYLQRPGQSPQLLISLGSYRASGVPDRFSGSGSGTDFTLKISRVEAEDVGVYYCMQALHPFTFGGGTKVEIK	519 s	
ADI-65533 (antibody, V domains shown) VH: QVQLVESGGGVVQPGRSLRLSCAASGFTFSSYAMHWVRQAPGKGLEWVAVTWFDVSKKDYADSVKGRFTISRDNSKNTLYLQMNSLRAEDTAVYYCARNLIRYSVSYFPVHGMDVWGQGTTVTVSS VL: DIVMTQSPLSLPVTPGEPASISCRSSQSLLHTYGYNVLDWYLQRPGQSPQLLISLGSYRASGVPDRFSGSGSGTDFTLKISRVEAEDVGVYYCMQALHPFTFGGGTKVEIK		10 fold
ADI-65534 (antibody, V domains shown) VH: QVQLVESGGGVVQPGRSLRLSCAASGFEFSSYAMHWVRQAPGKGLEWVAVTWFDVSKKDYADSVKGRFTISRDNSKNTLYLQMNSLRAEDTAVYYCARNLIRYSVSYFPVHGMDVWGQGTTVTVSS VL: DIVMTQSPLSLPVTPGEPASISCRSSQSLLHTYGYNVLDWYLQRPGQSPQLLISLGSYRASGVPDRFSGSGSGTDFTLKISRVEAEDVGVYYCMQALHPFTFGGGTKVEIK		10 fold
